Data reported in US20260116958A1 (University of California, published 2026).

T1: active BoNT/G holotoxin (Clostridium botulinum, UniProt Q60393 2-1297)
T1 sequence: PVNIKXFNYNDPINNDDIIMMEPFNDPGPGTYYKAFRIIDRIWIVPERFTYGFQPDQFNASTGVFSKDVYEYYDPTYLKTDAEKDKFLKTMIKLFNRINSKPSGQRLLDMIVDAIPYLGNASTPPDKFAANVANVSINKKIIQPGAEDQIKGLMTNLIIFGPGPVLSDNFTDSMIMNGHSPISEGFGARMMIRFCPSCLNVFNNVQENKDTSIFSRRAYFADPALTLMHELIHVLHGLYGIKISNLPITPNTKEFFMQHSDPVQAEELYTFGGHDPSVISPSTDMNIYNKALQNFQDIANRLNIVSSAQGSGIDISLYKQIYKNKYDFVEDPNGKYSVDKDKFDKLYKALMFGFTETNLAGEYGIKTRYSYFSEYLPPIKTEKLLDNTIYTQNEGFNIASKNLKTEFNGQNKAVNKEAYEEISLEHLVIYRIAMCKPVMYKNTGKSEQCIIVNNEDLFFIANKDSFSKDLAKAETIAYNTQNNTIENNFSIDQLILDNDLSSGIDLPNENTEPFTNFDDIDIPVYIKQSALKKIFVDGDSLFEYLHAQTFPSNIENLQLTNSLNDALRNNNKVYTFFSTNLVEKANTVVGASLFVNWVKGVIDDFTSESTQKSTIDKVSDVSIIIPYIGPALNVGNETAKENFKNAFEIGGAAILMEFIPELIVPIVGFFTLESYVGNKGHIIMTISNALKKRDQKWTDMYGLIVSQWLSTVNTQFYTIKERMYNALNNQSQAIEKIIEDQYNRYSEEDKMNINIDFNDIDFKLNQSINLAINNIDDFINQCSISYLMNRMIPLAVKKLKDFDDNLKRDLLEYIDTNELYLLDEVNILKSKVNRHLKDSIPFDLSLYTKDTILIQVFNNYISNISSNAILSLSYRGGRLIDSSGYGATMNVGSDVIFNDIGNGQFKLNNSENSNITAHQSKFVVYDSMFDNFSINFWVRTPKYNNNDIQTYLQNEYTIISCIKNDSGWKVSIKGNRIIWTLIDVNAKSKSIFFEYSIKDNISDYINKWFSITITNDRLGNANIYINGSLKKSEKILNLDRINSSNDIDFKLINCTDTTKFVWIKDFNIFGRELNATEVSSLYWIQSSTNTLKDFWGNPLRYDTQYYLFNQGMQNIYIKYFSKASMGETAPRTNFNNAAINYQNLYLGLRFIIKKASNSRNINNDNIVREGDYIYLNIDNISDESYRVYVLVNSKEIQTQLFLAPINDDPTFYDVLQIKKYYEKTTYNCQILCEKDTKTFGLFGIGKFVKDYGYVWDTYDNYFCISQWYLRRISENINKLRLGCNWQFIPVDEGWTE

T2: inactive BoNT/G (BoNT/Gi) (Clostridium botulinum, UniProt Q60393 1-1297)
T2 sequence: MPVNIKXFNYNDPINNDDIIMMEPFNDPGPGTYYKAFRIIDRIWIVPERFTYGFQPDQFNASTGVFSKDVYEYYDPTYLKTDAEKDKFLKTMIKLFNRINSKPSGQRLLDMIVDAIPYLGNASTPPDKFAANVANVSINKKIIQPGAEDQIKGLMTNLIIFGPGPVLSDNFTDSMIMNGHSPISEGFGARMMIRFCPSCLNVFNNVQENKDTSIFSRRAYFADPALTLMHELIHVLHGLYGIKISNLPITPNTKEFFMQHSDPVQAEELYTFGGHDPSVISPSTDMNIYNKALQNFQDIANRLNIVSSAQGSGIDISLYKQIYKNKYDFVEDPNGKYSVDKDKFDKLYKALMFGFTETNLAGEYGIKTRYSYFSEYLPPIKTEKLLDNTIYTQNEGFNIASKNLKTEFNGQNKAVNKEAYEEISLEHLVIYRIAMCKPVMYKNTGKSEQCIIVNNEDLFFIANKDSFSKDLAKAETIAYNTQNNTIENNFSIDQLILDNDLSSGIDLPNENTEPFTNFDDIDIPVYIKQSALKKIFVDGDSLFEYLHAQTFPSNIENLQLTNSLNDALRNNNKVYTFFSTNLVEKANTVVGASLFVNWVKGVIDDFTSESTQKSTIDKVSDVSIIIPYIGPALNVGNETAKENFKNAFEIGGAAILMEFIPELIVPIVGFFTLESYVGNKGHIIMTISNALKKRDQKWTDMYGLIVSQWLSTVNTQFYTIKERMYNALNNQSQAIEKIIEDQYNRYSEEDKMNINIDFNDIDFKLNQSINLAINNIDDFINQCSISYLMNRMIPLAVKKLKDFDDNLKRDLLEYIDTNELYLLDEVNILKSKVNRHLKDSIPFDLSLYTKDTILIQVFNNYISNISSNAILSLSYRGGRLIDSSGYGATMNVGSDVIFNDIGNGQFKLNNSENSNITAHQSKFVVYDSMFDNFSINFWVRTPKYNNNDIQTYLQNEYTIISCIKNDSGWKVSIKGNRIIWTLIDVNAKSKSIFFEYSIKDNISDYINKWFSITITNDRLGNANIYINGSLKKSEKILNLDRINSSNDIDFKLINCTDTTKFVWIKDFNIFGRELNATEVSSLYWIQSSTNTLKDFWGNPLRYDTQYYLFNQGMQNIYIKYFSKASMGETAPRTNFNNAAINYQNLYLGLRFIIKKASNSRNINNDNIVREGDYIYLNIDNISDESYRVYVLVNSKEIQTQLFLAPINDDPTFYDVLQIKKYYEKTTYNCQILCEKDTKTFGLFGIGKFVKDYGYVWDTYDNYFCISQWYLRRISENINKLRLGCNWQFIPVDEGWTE

B1: 6G10 IgG (antibody, V domains shown)
VH: EVQLQQSGPELVKPGASVKISCKASGYSFTGYFMHWVKQSHVKSLEWIGRINPYNGDIIYNQNFKDKASLTVDKSSSTAYMELHSLTSEDSAVYYCASLFGLYYFDYWGQGTTLTVSS
VL: EIVLTQSPAIMSASPGEKVTMTCSASSSVSYMHWYQQKSGTSPKRWIYDTSKLASGVPARFSGSGSGTSYSLTISSMEAEDAATYYCQQWSSNPLTFGAGTKLELKR
B2: Hu6G11.1 IgG (antibody, V domains shown)
VH: QVQLVQSGAEVAKPGASVKMSCKASGYTFTSYWMHWVRQAPGQGLEWIGYINPSTGYTEYNQKFKDRATLTADKSKSTAYMELSSLRSEDTAVYYCARGYFSFAYWGQGTLVTVSS
VL: DIVMTQSPSSLSASVRDRVTITCQASHDIKNFLNWFQQKPGKAPKLLVYDASYLQVGVPSRFSASGYGTEFTLTISSLQPEDFATYYCQQANSFPRTFGQGTKVEIKR
B3: Hu6G11.2 IgG (antibody, V domains shown)
VH: QVQLVQSGAEVAKPGASVKMSCKASGYTFTSYWMHWVRQAPGQGLEWIGYINPSTGYTEYNQKFKDRATLTADKSKSTAYMELSSLRSEDTAVYYCARGYFSFAYWGQGTLVTVSS
VL: DIVMTQSPSSLSASVRDRVTITCQASHDIKNFLNWFQQKPGKAPKLLVYDASHLQVGVPSRFSASGYGTEFTLTISSLQPEDFATYYCQQANSFPRTFGQGTKVEIKR
B4: hu6G11 IgG (antibody, V domains shown)
VH: QVQLVQSGAEVAKPGASVKMSCKASGYTFTSYWMHWVRQAPGQGLEWIGYINPSTGYTEYNQKFKDRATLTADKSTSTAYMELSSLRSEDTAVYYCARGYFSFAYWGQGTLVTVSS
VL: DIVMTQSPSSLSASVRDRVTITCQASHDIKNFLNWFQQKPGKAPKLLVYDASNLQVGVPSRFSASGYGTEFTLTISSLQPEDFATYYCQQANSFPRTFGQGTKVEIKR
B5: Hu6G7.1 IgG (antibody, V domains shown)
VH: QVQLVQSGAEVKKPGASVKVSCKASDYSFTDYNIYWVRQTPGQGLEWIGYIDPYNGGTSYNQKFKGRATLTVDKSISTAYMELSRLRSDDTAVYYCALYGYDPDYIDYWGQGTTLTVSS
VL: DIVLTQSPASMAVSPGQRVTITCSASSSVSYLHWFQQKPGQSPKLWIYSTSNLASGVPARFSGSGSGTDYTLTINPMEAEDTATYYCQQRSSYPYTFGQGTKLEIKR
B6: hu6G6 IgG (antibody, V domains shown)
VH: QVQLVQSGAEVKKPGASVKLSCKASGFNIKDTYMHWVRQAPGQGLEWIGRIDPANGNTKYDPKFQGRATITADTSINTAYLELSRLRSDDTAVYYCASGPNYYGTTWFAYWGQGTTVTVSS
VL: EIVLTQSPSTLSASVGDRVTITCRASHGISNYLAWYQQKPGRAPKLLIYKASTLHIGVPSRFSGSGSGTEFALTISSLQPDDFSTYYCQQYNSYLPHTFGQGTRLEIKR
B7: Hu6G6.2 IgG (antibody, V domains shown)
VH: QVQLVQSGAEVKKPGASVKLSCKASGFNIKDTYMHWVRQAPGQGLEWIGRIDPENGNTKYDPKFQGRATITAYKSINRAYLELSRLRSDDTAVYYCASGPNYYGTTWFAYWGQGTTVTVSS
VL: EIVLTQSPSTLSASVGDRVTITCRASHGISNYLAWYQQKPGRAPKLLIYKASTLHIGVPSRFSGSGSGTEFALTISSLQPDDFSTYYCQQYNSYLPHTFGQGTRLEIKR
B8: 6G9 IgG (antibody, V domains shown)
VH: EVQLQQSGDDLVKPGASVKMSCKASGYTFTSYWMHWVKQRPGQGLEWIGYINPSTGYTEYNQKFKDKATLTADKSSSTAYMQLSSLTSEDSAVYYCARGGNYVDYWGQGTTLTVSS
VL: EIVLTQSPAIMSASPGEKVTISCSASSSVSYMYWYQQKPGSSPKPWIYRTSNLASGVPARFSGSGSGTSYSLTISSMEAEDAATYYCQQWSSNPYTFGGGTKLEIKR
B9: 6G7.1 IgG (antibody, V domains shown)
VH: DVQLQESGPELVKPGASVKVSCKASDYSFTDYNIYWVKQSHGKSLEWIGYIDPYNGGTSYNQKFKGKATLTVDKSSSTAFMYLNSLTSEDSAVYYCALYGYDPDYIDYWGQGTTLTVSS
VL: QIVLTQSPAIMSASPGEKVTITCSASSSVSYLHWFQQKPGTSPKLWIYSTSNLASGVPARFSGSGSGTSYSLTISRMEAEDAATYYCQQRSSYPYTFGGGTKLEIKA
B10: Hu6G9.1 IgG (antibody, V domains shown)
VH: QVQLVQSGAEVKKPGASVKMSCKASGYTFTSYWMHWVRQAPGQGLEWVGYINPSTGYTEYNQKFKDRATLTADKSTSTAYMELRSLRSDDTAVYYCARGGNYVDYWGQGTTLTVSS
VL: DIQMTQSPSTLSASVGERVTITCRASHGISSWLAWYQQKPGKAPKRLIYAVSTLQTGVPSRFSDSGSGTDLTLTINSLQPEDFATYYCQDLNSYPLSFGGGTKVEIKR
B11: Hu6G11.2 scFv (scFv, V domains shown)
VH: QVQLVQSGAEVAKPGASVKMSCKASGYTFTSYWMHWVRQAPGQGLEWIGYINPSTGYTEYNQKFKDRATLTADKSKSTAYMELSSLRSEDTAVYYCARGYFSFAYWGQGTLVTVSS
VL: DIVMTQSPSSLSASVRDRVTITCQASHDIKNFLNWFQQKPGKAPKLLVYDASHLQVGVPSRFSASGYGTEFTLTISSLQPEDFATYYCQQANSFPRTFGQGTKVEIKR
B12: Hu6G11.1 scFv (scFv, V domains shown)
VH: QVQLVQSGAEVAKPGASVKMSCKASGYTFTSYWMHWVRQAPGQGLEWIGYINPSTGYTEYNQKFKDRATLTADKSKSTAYMELSSLRSEDTAVYYCARGYFSFAYWGQGTLVTVSS
VL: DIVMTQSPSSLSASVRDRVTITCQASHDIKNFLNWFQQKPGKAPKLLVYDASYLQVGVPSRFSASGYGTEFTLTISSLQPEDFATYYCQQANSFPRTFGQGTKVEIKR
B13: Hu6G10 scFv (scFv, V domains shown)
VH: QVQLVQSGAEVKKPGATVKISCKASGYSFTGYFMHWVRQAPGKGLEWIGRINPYNGDIIYNQNFKDRATLTVDKSTSTAYMELSSLRSEDTAVYYCASLFGLYYFDYWGQGTTLTVSS
VL: DVVMTQSPSSVSASVGDRVTITCRASQRISNHLNWYQQKPGKAPKRLIYAASSLESGVPSRFSGSGSGTEFTLTISSLQPEDFATYFCLQHNSYPYTFGQGTKVEIKR

Each binder was assayed against T1, active BoNT/G holotoxin (assay: KinExA, IgG).

In order of rising Kd:
1. B9  0.0266 nM
2. B10  0.0275 nM
3. B7  0.0422 nM
4. B3  0.048 nM
5. B2  0.101 nM
6. B1  0.33 nM
7. B4  0.531 nM
8. B5  1.19 nM
9. B8  1.59 nM
10. B6  8.37 nM

These binders were tested against T2, inactive BoNT/G (BoNT/Gi) (assay: FACS, scFv on yeast).

In order of falling Kd:
1. B11  0.56 nM
2. B13  0.52 nM
3. B12  0.32 nM
